Experimental data reported in PMC5556061 (Scientific Reports, 2017).
Where a chain is given by its changes, count along the chain named.

Key:
CAS SH3 Y12E = test: Phage ELISA with CAS SH3 variants; type: binding, mouse; conditions: immobilized 5 µg of CAS SH3 variant per well, three independent experiments
Protocol: The relative binding affinities of individual phage clones to GST-CAS SH3 were assessed by ELISA according to the manufacturer’s protocol (Ph.D.™ −12 Phage Display Peptide Library Kit, New England Biolabs). Briefly, a dilution series of phage stocks was prepared in TBS with 0.5% Tween 20 (TBST, 10^15−2 × 10^6 pfu/ml), and phages were scored for their ability to bind immobilized GST-CAS SH3 domain (100 µl of 50 µg/ml per well) in 96-well plate. Bound phages were detected with anti-M13 antibody conjugated to HRP and quantified in a colorimetric assay (ABTS at 415 nm, Invitrogen) using Varioskan Flash (Thermo Scientific). Relative binding affinities (the affinity of the phage clone with the highest affinity was arbitrarily set to 1) were evaluated based on the number of phages required to bind the immobilized GST-fused CAS SH3 domain at 50% saturation. Curves were fitted with the standard sigmoidal function in Sigmaplot. The clones with highest affinities were selected for further analyses (e.g., binding to immobilized 5 µg of CAS SH3 variants per well).

Src kinase = test: Co-immunoprecipitation of FAK and Vinculin with CAS after Src inhibition; type: cell-based, mouse; conditions: MEFs SrcF treated with 5 µM Saracatinib for 3 h, Vinculin immunoblot
Protocol: Immunoprecipitations from lysates of MEFs or MEFs transformed with SrcF were performed similarly as described above. To immunoprecipitate CAS proteins, protein-A sepharose (GE-Healthcare) and anti-CAS antibody (BD Transduction Laboratories) were used. […] After transferring proteins onto nitrocellulose membrane and blocking, the membranes were incubated with anti CAS, Src, FAK, Vinculin, CAS Tyr12, CAS pTyr165, Src pTyr418 or actin antibody.

GST-fused CAS SH3 domain = test: Competitive displacement phage ELISA (EC50); type: binding, mouse
Protocol: The EC50 for phage clone 1 ([…], highest affinity) was determined using competitive displacement of the phage bound (5.5·10^10 pfu) to immobilized GST-fused CAS SH3 domain (100 µl of 20 µg/ml per well to yield the best specificity/sensitivity ratio) by serial additions of free GST-fused CAS SH3 domain in TBST (1 µg/ml–800 µg/ml) as previously described. The amount of bound phages was assessed with anti-M13 antibody conjugated to HRP and quantified in a colorimetric assay. Displacement curves were fitted to standard sigmoidal function and EC50 was calculated in Sigmaplot version 11 software using a four-parameter logistic equation. Statistical significance (*p < 0.05, **p < 0.01, ***p < 0.001) was determined on log-transformed data by one-way ANOVA followed by Tukey’s post-hoc test.

[1] = biological target: T1, CAS SH3 (as used for ITC) (mouse, UniProt Q61140 3-65); test: ITC; 660 µM peptide injected into 60 µM CAS SH3; 25 °C; PBS pH 7.5, 0.05% 2-mercaptoethanol; conditions: both partners purified
T1 construct: Crk-associated substrate (CAS), mouse, SH3 domain; probably the same protein as m2; source: E. coli BL21 (DE3), purified
T1 sequence (looked up): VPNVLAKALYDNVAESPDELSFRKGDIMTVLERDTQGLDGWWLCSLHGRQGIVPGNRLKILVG

[2] = biological target: T2, CAS SH3 domain (GST tag removed, for NMR) (mouse, UniProt Q61140 3-65); test: NMR solution structure; chimeras: peptide fused through a Gly/Ser-rich linker to the C-terminus of the CAS SH3 domain; 450 µM; 25 °C; 25 mM sodium phosphate pH 7.5, 100 mM NaCl, 1 mM TCEP; conditions: both partners purified
T2 construct: Crk-associated substrate (CAS), mouse, SH3 domain; Two additional residues remained at the N-terminus after thrombin cleavage; In the two chimeras this domain carried, on the same chain, the spacer SGGSGSG and the peptide m17 or m18 at its C-terminus; also called free CAS SH3 domain; source: E. coli BL21 (DE3), 15N/13C-labelled, purified (glutathione agarose, thrombin cleavage, size exclusion); …
T2 sequence (looked up): T1 sequence (looked up)

[3] = biological target: T3, GST-fused CAS SH3 domain Y12F (mouse, UniProt Q61140 3-65, Y12F); test: ELISA; phage ELISA: GST-CAS SH3 domain or its variants immobilised in 96-well plate (100 µl of 50 µg/ml; 5 µg per well), dilution series of phage stocks in TBS with 0.5% Tween 20, anti-M13-HRP; relative affinities from phage number at 50% saturation; conditions: one partner purified
T3 construct: Crk-associated substrate (CAS), mouse, SH3 domain with Y12F; also called CAS SH3 Y12F mutant; source: E. coli BL21 (DE3), pGEX-2TK, purified (glutathione agarose); not shown: GST, N-terminal, kept
T3 sequence (looked up): T1 sequence (looked up) with Y10F

[4] = biological target: T4, phage-displayed peptide clone 1 (FHAPPSKPPLPK); test: ELISA; competitive displacement of phage clone 1 (5.5·10^10 pfu) bound to immobilised GST-CAS SH3 (100 µl of 20 µg/ml per well) by free GST-CAS SH3 in TBST (1-800 µg/ml); anti-M13-HRP; conditions: one partner purified
T4 construct: 12-residue peptide selected from a degenerate library; also called phage clone 1; source: M13 phage stock (Ph.D.-12 Phage Display Peptide Library, New England Biolabs), selected by panning
T4 peptide: FHAPPSKPPLPK

TMTPPPKPPRLI [clone 10] was tested, and the “effect of Y12E mutation on ligand binding” value (CAS SH3 Y12E) was “complete disruption of ligand binding”.

With AHTPPPKPTRPP [clone 16] the “effect of Y12E mutation on ligand binding” value (CAS SH3 Y12E) was “complete disruption of ligand binding”.

With `CN1CCN(CCOc2cc(OC3CCOCC3)c3c(Nc4c(Cl)ccc5c4OCO5)ncnc3c2)CC1` [Saracatinib] the “binding of CAS to Vinculin” value (Src kinase) was “restored the binding of CAS to Vinculin to a similar level as in MEFs”.

In the case of FHAPPSKPPLPK [clone 1], the “fold higher affinity than reported for CAS SH3 with FAK-derived peptide” value (GST-fused CAS SH3 domain; EC50 of clone 1 compared with previously reported value) is reported as about 6 fold and the EC50 (GST-fused CAS SH3 domain; displacement of bound phage (5.5·10^10 pfu) from immobilized GST-CAS SH3 (100 µl of 20 µg/ml per well) by free GST-fused CAS SH3 (1-800 µg/ml) in TBST, anti-M13-HRP, colorimetric, seven independent experiments, read-out: EC50 for clone 1 binding) is reported as 0.363 µM.

B1: synthetic octapeptide PPPKPPRL (peptide)
peptide: PPPKPPRL
notes: source: synthetic peptide
For B1, the Kd [1] was 5.29 µM and the “stoichiometry N” value [1] was 1.

B2: PTP-PEST-derived peptide, residues 327-343 (peptide part of the CAS-PTP-PEST chimera) (peptide, UniProt P35831 327-343, looked up)
peptide: EKQDSPPPKPPRTRSCL
notes: PTP-PEST, mouse, residues 327-343; Stood on one chain with the CAS SH3 domain: SH3 domain, spacer SGGSGSG, peptide; also called PTP-PEST peptide; PTP-PEST extended peptide; source: E. coli BL21 (DE3), as the C-terminal part of the CAS SH3 chimera, purified
B2: binds [2].

B3: phage-displayed peptide clone 10 (TMTPPPKPPRLI) (peptide)
peptide: TMTPPPKPPRLI
notes: 12-residue peptide selected from a degenerate library; also called phage clone 10; source: M13 phage stock (Ph.D.-12 Phage Display Peptide Library, New England Biolabs), selected by panning
With B3 the “fold decrease in affinity against CAS WT” value [3] was 2 fold.

B4: synthetic octapeptide PPSKPPRP (peptide)
peptide: PPSKPPRP
notes: source: synthetic peptide
B4 was tested, and the Kd [1] was 15.3 µM and the “stoichiometry N” value [1] was 1.

B5: synthetic octapeptide PPSKPPLP (peptide)
peptide: PPSKPPLP
notes: source: synthetic peptide
B5 was tested, and the Kd [1] was 46.6 µM and the “stoichiometry N” value [1] was 1.

B6: Vinculin-derived peptide, residues 854-870 (peptide part of the CAS-Vinculin chimera) (peptide, UniProt Q64727 854-870, looked up)
peptide: LTDELAPPKPPLPEGEV
notes: Vinculin, mouse, residues 854-870; Stood on one chain with the CAS SH3 domain: SH3 domain, spacer SGGSGSG, peptide; also called Vinculin peptide; Vinculin extended peptide; source: E. coli BL21 (DE3), as the C-terminal part of the CAS SH3 chimera, purified
B6: binds [2].

B7: GST-fused CAS SH3 domain (domain or fragment, mouse, UniProt Q61140 3-65, looked up)
chain: T1 sequence (looked up)
notes: Crk-associated substrate (CAS), mouse, SH3 domain; also called GST-CAS SH3; GST-SH3; source: E. coli BL21 (DE3), pGEX-2TK, purified (glutathione agarose); not shown: GST, N-terminal, kept
With B7 the EC50 [4] was 0.363 µM.

B8: synthetic octapeptide APPKPPLP (binding site of CAS on Vinculin) (peptide)
peptide: APPKPPLP
notes: also called Vinculin core peptide (859-866); source: synthetic peptide
With B8 the Kd [1] was 15.7 µM and the “stoichiometry N” value [1] was 1.

B9: phage-displayed peptide clone 16 (AHTPPPKPTRPP) (peptide)
peptide: AHTPPPKPTRPP
notes: 12-residue peptide selected from a degenerate library; also called phage clone 16; source: M13 phage stock (Ph.D.-12 Phage Display Peptide Library, New England Biolabs), selected by panning
With B9 the “fold decrease in affinity against CAS WT” value [3] was 37 fold.
